Where two headings read alike, the source gives them in different places. Positions of bridges follow the written chain, without caps; N, C: chain ends. Residues, ends and D or L forms follow the SMILES beside them. *: point of attachment. X1 = CC(CCC(C)C(=O)*)C(=O)OCC(=O)[C@@]1(O)[C@H](C)C[C@H]2[C@@H]3CCC4=CC(=O)C=C[C@]4(C)[C@@]3(F)[C@@H](O)C[C@@]21C
What was measured:
[1] = Hydrolysis assay of peptide-drug conjugates in rat plasma (free drug by LC/MS); type: in vitro ADME; conditions: 37° C.
[2] = tested on: CIA rats; type: in vivo; conditions: 0.05 mg/kg on study day 0 and day 1
Experimental: A study was conducted in CIA rats to address the following: 1) functionality and duration of effect for peptide(SEQ ID NO: 105)-carbamate-Dex at 0.2 mg/kg as compared to Dex alone at the same dose; 2) functionality and duration of effect for peptide(SEQ ID NO: 105)-DMA-Dex at 0.05 mg/kg as compared to Dex alone at the same dose; 3) systemic markers of Dex exposure in rats treated with each PDC and Dex at their respective doses (FIG. 16B-FIG. 16G).
CIA was induced as described above in EXAMPLE 21. Rats were enrolled in the study following onset of arthritis in at least one ankle and randomly assigned into one of five treatment groups (vehicle; peptide-carbamate 0.2 mg/kg; Dex 0.2 mg/kg; peptide-DMA conjugate 0.05 mg/kg; Dex 0.05 mg/kg) with 5 rats per group. Treatment was administered on study day 0 and study day 1 and rats were euthanized on study day 7. The primary read-out in this cohort was change in ankle diameter during and after treatment, as a measure of functionality and duration of effect. […] The primary read-out for this cohort was measures of systemic exposure to Dex which included thymus weight, spleen weight, total white blood cell counts, lymphocyte counts, and change in body weight.

## CC[C@H](C)[C@@H]1NC(=O)[C@@H]2CSSC[C@H](NC(=O)[C@H](CCCNC(=N)N)NC(=O)[C@@H](NC(=O)[C@H](CC(N)=O)NC(=O)[C@@H](NC(=O)[C@@H]3CCCN3C(=O)[C@@H](NC(=O)CNC(=O)[C@H](CO)NC(=O)CNC(=O)C(C)CCC(C)C(=O)OCC(=O)[C@@]3(O)[C@H](C)C[C@H]4[C@@H]5CCC6=CC(=O)C=C[C@]6(C)[C@@]5(F)[C@@H](O)C[C@@]43C)C(C)C)[C@@H](C)CC)C(C)C)C(=O)N[C@@H](CCCNC(=N)N)C(=O)NCC(=O)N[C@@H](CO)C(=O)N[C@@H](CCCNC(=N)N)C(=O)N[C@@H](CC(=O)O)C(=O)N[C@H]3CSSC[C@H](NC(=O)[C@H](CCCNC(=N)N)NC(=O)[C@H](CO)NC(=O)[C@H](CC(N)=O)NC1=O)C(=O)N[C@@H](Cc1c[nH]cn1)C(=O)N[C@H](C(=O)N[C@H](C(=O)N1CCC[C@H]1C(=O)O)[C@@H](C)O)CSSC[C@H](NC(=O)[C@@H]1CCCN1C(=O)[C@H](CC(=O)O)NC(=O)[C@H](CC(C)C)NC3=O)C(=O)N[C@@H](CCCNC(=N)N)C(=O)N[C@@H](CCCNC(=N)N)C(=O)N[C@@H](C)C(=O)NCC(=O)N[C@@H](CCSC)C(=O)N[C@@H](CCCNC(=N)N)C(=O)N[C@@H](Cc1ccccc1)C(=O)NCC(=O)N[C@@H](CCCNC(=N)N)C(=O)N2 (stereo partly drawn) [Compound 27, peptide(SEQ ID NO: 105)-[dimethyladipic acid]-Dex] (X1-GSGVPINVRCRGSRDCLDPCRRAGMRFGRCINSRCHCTP-OH; disulfide 10-30, 16-35, 20-37 (inferred); C-terminus assumed)
[1]; Rat Plasma, release of free Dex, time points to 32 hr, read-out: Half-life (hours) as measured in the hydrolysis experiments (converted)
  half-life at 0.25 mg/mL: 9.9 h
[1]; in rat plasma, free Dex, read-out: Hydrolysis half-life (converted)
  half-life at 0.25 mg/mL: 9.9 h
[2]
  ankle diameter as compared to vehicle; magnitude and duration of effect: significant reduction

From US20210252159A1, “CONJUGATES OF CARTILAGE-HOMING PEPTIDES” (priority 2018, published 2021)
